In PMC4022583:

Molecular target: fluorescein labelled MPT peptide (UniProt P35579)
Experiment: fluorescence polarisation; S100A4 variant and fluorescein labelled MPT peptide

Kd	Substance
0.28 nM	S100A4 C-terminal deletion mutant (residues 1-88, Δ13) (from UniProt P26447 1-88) (domain or fragment)
0.12 nM	wild-type S100A4 (from UniProt P26447 1-101) (natural protein)
